Patent publication US20150105316A1 (TREVENA, published 2015)
Where no end group is shown, it is not given here. [ ]: non-standard residue; d: D form. The star is where a group is joined. Val(3-OH) = CC(C)(O)[C@H](N)C(=O)O; Tle = CC(C)(C)[C@H](N)C(=O)O; Ac6c = NC1(C(=O)O)CCCCC1; NHCH2tBu = CC(C)(C)CN*; Aib = CC(C)(N)C(=O)O; Sar = CNCC(=O)O

T1: human angiotensin 2 type 1 receptor (human, UniProt P30556 1-359)
T1 sequence (looked up): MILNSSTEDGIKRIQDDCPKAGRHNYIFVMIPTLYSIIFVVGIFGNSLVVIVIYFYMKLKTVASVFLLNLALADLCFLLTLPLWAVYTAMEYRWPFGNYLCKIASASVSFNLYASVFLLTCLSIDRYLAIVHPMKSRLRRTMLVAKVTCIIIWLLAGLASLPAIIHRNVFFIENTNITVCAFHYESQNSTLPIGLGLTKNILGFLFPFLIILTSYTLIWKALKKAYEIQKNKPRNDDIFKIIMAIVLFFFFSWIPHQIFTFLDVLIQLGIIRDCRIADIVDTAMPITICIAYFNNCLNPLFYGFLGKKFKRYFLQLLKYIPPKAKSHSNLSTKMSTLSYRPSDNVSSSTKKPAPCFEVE

T2: rat angiotensin 2 type 1 receptor (rat, UniProt P25095 1-359)
T2 sequence (looked up): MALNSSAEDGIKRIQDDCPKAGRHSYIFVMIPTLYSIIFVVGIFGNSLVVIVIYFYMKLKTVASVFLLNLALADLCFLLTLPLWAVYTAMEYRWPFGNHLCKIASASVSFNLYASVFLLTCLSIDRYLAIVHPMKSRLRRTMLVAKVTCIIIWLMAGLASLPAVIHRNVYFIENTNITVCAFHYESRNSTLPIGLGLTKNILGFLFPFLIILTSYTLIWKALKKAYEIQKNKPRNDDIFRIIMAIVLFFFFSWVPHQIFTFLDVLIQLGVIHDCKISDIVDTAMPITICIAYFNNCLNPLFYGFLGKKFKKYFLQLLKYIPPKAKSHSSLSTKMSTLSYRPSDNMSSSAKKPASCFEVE

B1: SEQ ID NO: 36 (Sar-Arg-Val-Tyr-cyHex-His-Pro-Asn) (peptide)
peptide: [Sar]RVY[Ac6c]HPN
B2: SEQ ID NO: 31 (Sar-Arg-Val-Tyr-cyHex-His-Pro-AA03) (peptide)
peptide: [Sar]RVY[Ac6c]HP[Val(3-OH)]
B3: SEQ ID NO: 30 (Sar-Arg-Val-Tyr-AA02-His-Pro-Thr) (peptide)
peptide: [Sar]RVY[Tle]HPT
B4: SEQ ID NO: 34 (Sar-Arg-Val-Tyr-cyHex-His-Pro-Cys) (peptide)
peptide: [Sar]RVY[Ac6c]HPC
B5: SEQ ID NO: 41 (Sar-Arg-Val-Tyr-cyHex-His-Pro) (peptide)
peptide: [Sar]RVY[Ac6c]HP
B6: SEQ ID NO: 29 (Sar-Arg-Val-Tyr-AA02-His-Pro-Val) (peptide)
peptide: [Sar]RVY[Tle]HPV
B7: SEQ ID NO: 40 (Sar-Arg-Val-Tyr-AA01-His-Pro-Thr) (peptide)
peptide: [Sar]RVYXHPT
modifications: not fully specified (residue 5); printed as Sar-Arg-Val-Tyr-AA01-His-Pro-Thr
B8: SEQ ID NO: 32 (Sar-Arg-Val-Tyr-cyHex-His-Pro-Gly) (peptide)
peptide: [Sar]RVY[Ac6c]HPG
B9: SEQ ID NO: 35 (Sar-Arg-Val-Tyr-cyHex-His-Pro-AA01) (peptide)
peptide: [Sar]RVY[Ac6c]HP[Aib]
B10: SEQ ID NO: 47 (Sar-Arg-Val-Tyr-cyHex-His-Pro-NH-neopentyl) (peptide)
peptide: [Sar]RVY[Ac6c]HP-NHCH2tBu

What follows are binders tested against T1, human angiotensin 2 type 1 receptor (assay: cell-based or functional assay).
For B1, the “beta-arrestin2 assay EC50” value was over 3.2 nM, the “beta-arrestin2 assay Span” value was under 101 and the “beta-arrestin2 assay pEC50” value was under 8.5. B2 was tested, and the “beta-arrestin2 assay EC50” value was over 3.2 nM, the “beta-arrestin2 assay Span” value was under 101 and the “beta-arrestin2 assay pEC50” value was under 8.5. In the case of B3, the “beta-arrestin2 assay EC50” value is reported as over 3.2 nM, the “beta-arrestin2 assay Span” value is reported as under 101 and the “beta-arrestin2 assay pEC50” value is reported as under 8.5. With B4 the “beta-arrestin2 assay EC50” value was over 3.2 nM, the “beta-arrestin2 assay Span” value was under 101 and the “beta-arrestin2 assay pEC50” value was under 8.5. In the case of B5, the “beta-arrestin2 assay EC50” value is reported as over 3.2 nM, the “beta-arrestin2 assay Span” value is reported as under 101 and the “beta-arrestin2 assay pEC50” value is reported as under 8.5. For B6, the “beta-arrestin2 assay EC50” value was over 3.2 nM, the “beta-arrestin2 assay Span” value was under 101 and the “beta-arrestin2 assay pEC50” value was under 8.5. In the case of B7, the “beta-arrestin2 assay EC50” value is reported as over 3.2 nM, the “beta-arrestin2 assay Span” value is reported as under 101 and the “beta-arrestin2 assay pEC50” value is reported as under 8.5. With B8 the “beta-arrestin2 assay EC50” value was over 3.2 nM, the “beta-arrestin2 assay Span” value was under 101 and the “beta-arrestin2 assay pEC50” value was under 8.5. For B9, the “beta-arrestin2 assay EC50” value was over 3.2 nM, the “beta-arrestin2 assay Span” value was under 101 and the “beta-arrestin2 assay pEC50” value was under 8.5. With B10 the “beta-arrestin2 assay EC50” value was over 3.2 nM, the “beta-arrestin2 assay Span” value was under 101 and the “beta-arrestin2 assay pEC50” value was under 8.5.

Each binder was assayed against T2, rat angiotensin 2 type 1 receptor (assay: cell-based or functional assay).
B1 was tested, and the “beta-arrestin2 assay EC50” value was over 3.2 nM, the “beta-arrestin2 assay Span” value was under 105 and the “beta-arrestin2 assay pEC50” value was under 8.5. B2 was tested, and the “beta-arrestin2 assay EC50” value was over 3.2 nM, the “beta-arrestin2 assay Span” value was under 105 and the “beta-arrestin2 assay pEC50” value was under 8.5. In the case of B3, the “beta-arrestin2 assay EC50” value is reported as over 3.2 nM, the “beta-arrestin2 assay Span” value is reported as under 105 and the “beta-arrestin2 assay pEC50” value is reported as under 8.5. For B4, the “beta-arrestin2 assay EC50” value was over 3.2 nM, the “beta-arrestin2 assay Span” value was under 105 and the “beta-arrestin2 assay pEC50” value was under 8.5. B5 was tested, and the “beta-arrestin2 assay EC50” value was over 3.2 nM, the “beta-arrestin2 assay Span” value was under 105 and the “beta-arrestin2 assay pEC50” value was under 8.5. For B6, the “beta-arrestin2 assay EC50” value was over 3.2 nM, the “beta-arrestin2 assay Span” value was under 105 and the “beta-arrestin2 assay pEC50” value was under 8.5. With B7 the “beta-arrestin2 assay EC50” value was over 3.2 nM, the “beta-arrestin2 assay Span” value was under 105 and the “beta-arrestin2 assay pEC50” value was under 8.5. With B8 the “beta-arrestin2 assay EC50” value was over 3.2 nM, the “beta-arrestin2 assay Span” value was under 105 and the “beta-arrestin2 assay pEC50” value was under 8.5. B9 was tested, and the “beta-arrestin2 assay EC50” value was over 3.2 nM, the “beta-arrestin2 assay Span” value was under 105 and the “beta-arrestin2 assay pEC50” value was under 8.5.
